± gives the uncertainty stated by the source.
Assay: self-splicing fitness, log relative to wild type (ln ratio); higher = more splicing; Tetrahymena group I intron in knt gene, E. coli kanamycin selection, DiMSum; sequences stand for … in CUCUCU…GGAGGGAAAAGUUAUCAGGCAUGCACCUGGUAGCUAGUCUUUAAACCAAUAGAUUGCAUCGGUUUAAAAGGCAAGACCGUCAAAUUGCGGGAAAGGGGUCAACAGCCGUUCAGUACCAAGUCUCAGGGGAAACUUUGAGAUGGCCUUGCAAAGGGUAUGGUAAUAAGCUGACGGACAUGGUCCUAACCACGCAGCCAAGUCCUAAGUCAACAGAUCUUCUGUUGAUAUGGAUGCAGUUCACAGACUAAAUGUCGGUCGGGGAAGAUGUAUUCUUCUCAUAAGAUAUAGUCGGACCUCUCCUUAAUGGGAGCUAGCGGAUGAAGUGAUGCAACACUGGAGCCGCUGGGAACUAAUUUGUAUGCGAAAGUAUAUUGAUUAGUUUUGGAGUACUCGUGGUCG
Outline: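 DiMSum derived fitness as the error-weighted combination of fold changes across replicates, kanamycin versus no kanamycin, normalised to wild type. E. coli BL21(DE3) held the library, which randomised all eight P1ex-region intron nucleotides within the knt kanamycin-resistance gene on pET-22b(+). Six replicate transformations grew overnight at 37°C or 30°C on LB agar with or without 25 μg/mL kanamycin, also containing 100 μg/mL carbenicillin, 50 μM IPTG and 0.2% rhamnose, and pooled colonies were amplicon-sequenced on an Illumina HiSeq 2500.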

Sequence | self-splicing fitness (ln) (30 °C) | self-splicing fitness (ln) (37 °C)
AACAAGCAAUAUUACGCGAC | -2.41 ± 0.21 | -1.47 ± 0.21
UUUGAGCAAUAUUACGGCCU | -3.9 ± 0.4 | 0.167 ± 0.26
UGGAAGCAAUAUUACGUGGA | -2.88 ± 0.16 | -0.926 ± 0.12
AAGUAGCAAUAUUACGCUGU | -3.66 ± 0.25 | -1.87 ± 0.14
UGUUAGCAAUAUUACGAUCU | -0.736 ± 0.088 | -0.148 ± 0.12
CGUGAGCAAUAUUACGGCGU | -2.44 ± 0.18 | -1.32 ± 0.17
ACAAAGCAAUAUUACGGUCU | -0.435 ± 0.056 | 0.237 ± 0.079
GGACAGCAAUAUUACGAAGG | -3.1 ± 0.24 | -2.38 ± 0.39
GCCCAGCAAUAUUACGGCCA | -2.6 ± 0.27 | -0.571 ± 0.18
AUAUAGCAAUAUUACGACAU | 0.126 ± 0.014 | 0.224 ± 0.033
UCACAGCAAUAUUACGACGA | -0.431 ± 0.071 | -0.228 ± 0.073
UAGCAGCAAUAUUACGAACG | -0.486 ± 0.06 | 0.327 ± 0.085
CCCAAGCAAUAUUACGUGUC | -4.25 ± 0.26 | -2.72 ± 0.18
CAGGAGCAAUAUUACGCAAG | -2.98 ± 0.35 | -1.06 ± 0.27
AUAAAGCAAUAUUACGGAUG | -1.69 ± 0.072 | -0.844 ± 0.11
GAGUAGCAAUAUUACGUUAA | -3.94 ± 0.22 | -2.33 ± 0.18
CUCAAGCAAUAUUACGCAUC | -3.63 ± 0.23 | -2.3 ± 0.25

— the supplement of paper PMC7877785
